Where two headings read alike, the source gives them in different places.
Columns and labels:
[1] = target: SARS-CoV-2 spike protein receptor binding domain (RBD) (SARS-CoV-2, wild type (Wuhan-Hu-1 reference)) (UniProt P0DTC2); experiment: SPR
[2] = target: SARS-CoV-2 spike protein receptor binding domain (RBD) (SARS-CoV-2, wild type (Wuhan-Hu-1 reference)) (UniProt P0DTC2)
[3] = target: SARS-CoV-2 spike protein receptor binding domain (RBD) (SARS-CoV-2) (UniProt P0DTC2)
[4] = target: SARS-CoV-2 spike protein receptor binding domain (RBD) (SARS-CoV-2) (UniProt P0DTC2); remark: listed apart in the source
[5] = target: SARS-CoV-2 spike protein receptor binding domain (RBD) (SARS-CoV-2) (UniProt P0DTC2); remark: listed apart in the source
[6] = target: FcγRIIIa (V158); experiment: SPR
[7] = target: FcγRI; experiment: SPR
[8] = target: FcγRIIb; experiment: SPR
[9] = target: FcγRIIIa (F158); experiment: SPR
[10] = target: FcγRIIa (R131); experiment: SPR
[11] = target: FcγRIIa (H131); experiment: SPR
[12] = target: human neonatal Fc receptor (FcRn) (human) (UniProt P55899); experiment: SPR; pH 6.0
human neonatal Fc receptor (FcRn) (human), sequence (P55899 24-297, chain 1 of 2): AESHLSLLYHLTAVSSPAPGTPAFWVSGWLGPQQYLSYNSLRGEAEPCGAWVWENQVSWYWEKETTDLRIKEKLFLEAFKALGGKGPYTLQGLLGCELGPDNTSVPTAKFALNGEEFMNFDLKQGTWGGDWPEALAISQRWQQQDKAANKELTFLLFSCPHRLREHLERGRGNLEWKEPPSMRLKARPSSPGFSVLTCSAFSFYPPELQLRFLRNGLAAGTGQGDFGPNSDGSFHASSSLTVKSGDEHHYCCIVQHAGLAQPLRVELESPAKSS
human neonatal Fc receptor (FcRn) (human), sequence (partner, as listed by the source, chain 2 of 2): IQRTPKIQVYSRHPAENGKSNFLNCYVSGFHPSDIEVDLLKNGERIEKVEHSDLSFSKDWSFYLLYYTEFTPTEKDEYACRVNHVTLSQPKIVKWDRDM

Work on amubarvimab (BRII-196) (antibody) yielded a Kd [1] of 5.88 nM and an other [2] of 0.026 µg/mL.

For “combination of amubarvimab and romlusevimab”, the IC50 [3] was 16.4 nM, the other [4] was 0.16 µg/mL and the other [5] was 0.047 µg/mL.

With romlusevimab (BRII-198) the Kd [6] was 731 nM, the Kd [7] was 2.77 nM and the Kd [8] was 35300 nM. It also gave a Kd [9] of 4450 nM, a Kd [10] of 23700 nM and a Kd [11] of 13200 nM. For the same substance, the Kd [12] was 0.36 nM.

From article PMC9518701
